Assay results taken from patent CN112794907A (ANHUI ANKE BIOTECHNOLOGY GROUP CO LTD, dated 2021).

T1: rhOX40-Avi-His-bio (human, UniProt P43489 29-214, biotin joined covalently to the Avi tag by BirA)
T1 construct: range 29-214; Biotinylated form of rhOX40-Avi-His, captured on the SA chip for SPR; also called 生物素标记的抗原rhOX40-Avi-His-bio; huOX40; not shown: Avi tag and His tag from the vector pCD-Avi-His
T1 sequence (looked up): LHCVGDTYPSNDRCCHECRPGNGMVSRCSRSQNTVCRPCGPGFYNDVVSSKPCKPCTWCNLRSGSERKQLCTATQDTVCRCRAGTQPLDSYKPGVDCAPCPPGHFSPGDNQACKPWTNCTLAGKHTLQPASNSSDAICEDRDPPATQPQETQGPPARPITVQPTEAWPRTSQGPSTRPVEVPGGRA


Assays:
[1] = biological target: T1, rhOX40-Avi-His-bio; assay: SPR, Biacore T200, rhOX40-Avi-His-bio on SA chip, antibody as analyte
[2] = biological target: T1, rhOX40-Avi-His-bio; assay: SPR

| Kd [1] [nM] | fold increase of affinity over A2 [2] | fold increase of affinity over B11 [2] | Binder |
| --- | --- | --- | --- |
| ~0.2 | ~540 倍 | – | 全人源抗huOX40单克隆抗体A2-1 (antibody, IgG1, V domains shown) VH: DVQLQESGPGLVKPSETLSLTCTVSGDSVSDSGAYWVWIRQPPGKGLEWIGTIAPARGDTLYNPSLKSRVTISVDTSKNQFSLKLSSVTAADTSVYYCARDVWYIDYWGQGTLVTVSS VL: DIVLTQSPATLSLSPGERATLSCRASEDIGTWLAWYQQKPGQAPRLLIYHTDLRATGVPTRFSGSGSGTDFTLTISSLEPEDFAVYYCQQYASYPLTFGQGTKLEIK |
| ~0.776 | – | ~650 倍 | 全人源抗huOX40单克隆抗体B11-11 (antibody, IgG1, V domains shown) VH: DVQLQESGPGLVKPSETLSLTCTVSGGSISADGFIWGWIRQPPGKGLEWIGGITTNGGYTDYNPSLKSRVTISVDTSKNQFSLKLSSVTAADTSVYYCARWFWDVSYGFDTWGQGTLVTVSS VL: DIVMTQSPLSLPVTPGEPASISCRSSQSVDSDEYSFMHWYLQKPGQAPQLLIYRTDQRASGVPTRFSGSGSGTDFTLKISRVEAEDVGVYYCQQTPTYTFGQGTKLEIKR |
